Assay [1] addresses human PD-L1 on the cell surface (PD-L1 transfected HEK293, ES2, CHO PD-L1, engineered CHO cells) (human) (UniProt Q9NZQ7). The assay can be described thus: flow cytometry on engineered CHO cells; four-parameter sigmoidal fit, ECf. Background: Flow cytometry measures light scatter and fluorescence of single cells or particles in a stream.
Assay [2] shares this target. The assay can be described thus: flow cytometry on engineered CHO cells; four-parameter sigmoidal fit, 50% occupancy.
Assay [3] has the same target. The assay can be described thus: flow cytometry on engineered CHO cells, AF647 anti-human IgG; apparent KD, one site specific binding fit.
The target in assay [4] is human OX40 and human PD-L1 expressed together on engineered CHO cells (human) (UniProt P43489). Described as above.

Sequence of human PD-L1 on the cell surface (PD-L1 transfected HEK293, ES2, CHO PD-L1, engineered CHO cells) (human) (Q9NZQ7 19-290, change not shown): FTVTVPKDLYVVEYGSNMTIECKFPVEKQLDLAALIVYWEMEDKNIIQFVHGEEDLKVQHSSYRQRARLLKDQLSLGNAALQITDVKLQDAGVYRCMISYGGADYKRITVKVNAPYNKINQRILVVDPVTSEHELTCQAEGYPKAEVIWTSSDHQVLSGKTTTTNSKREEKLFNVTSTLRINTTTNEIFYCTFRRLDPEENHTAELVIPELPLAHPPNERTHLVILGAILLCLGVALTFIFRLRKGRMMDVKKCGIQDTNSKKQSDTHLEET

As for “MEDI5615 (PD-L1/OX40L BFP2 bispecific molecule, IgG4P)”, in assay [1], the concentration for 20% occupancy (EC20) was 0.022 nM and the concentration for 90% occupancy (EC90) worked out at 0.79 nM. Moreover, the EC50 (usually the concentration needed to bring the measured effect to its halfway point) in assay [2] was 0.088 nM. Moreover, the Kd in assay [3] was determined as 0.088 nM. In assay [4], the Kd turned out to be 0.27 nM.

These data come from patent publication US20190241659A1.
